Earlier results on one substance are cited in publication PMC7302117.

The target in the data set is ELK1 (Homo sapiens) (UniProt P19419).
Chain of UniProt P19419 (P19419 whole entry): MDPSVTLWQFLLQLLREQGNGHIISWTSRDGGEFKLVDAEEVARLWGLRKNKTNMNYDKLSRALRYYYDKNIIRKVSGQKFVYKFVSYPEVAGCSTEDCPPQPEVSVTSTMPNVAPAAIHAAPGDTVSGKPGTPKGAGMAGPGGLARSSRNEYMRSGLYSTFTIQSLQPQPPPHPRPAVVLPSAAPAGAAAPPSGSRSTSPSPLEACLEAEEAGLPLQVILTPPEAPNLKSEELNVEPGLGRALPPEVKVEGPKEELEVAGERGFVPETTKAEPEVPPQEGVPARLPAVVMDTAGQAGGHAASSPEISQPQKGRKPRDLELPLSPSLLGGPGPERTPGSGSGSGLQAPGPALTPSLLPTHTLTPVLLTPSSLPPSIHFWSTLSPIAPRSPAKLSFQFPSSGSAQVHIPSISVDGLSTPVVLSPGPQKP

For the substance “Androgen receptor A/B domain (from UniProt P10275)”, the Kd was 20 nM.
